# Test: label from the status in PepcDB records
row,Sequence,protein production
1,MKVFIIGAAGGIGNRLSSLLHARGDAVSGMHRNLEQASKITDTGATAVLGDLIHNSTEELAELFRGHDAIVFSAGAHGTGQENTTLIDGAGLRKAADAASAANVSRFILVSAFPESSRGENTTENFEHYMKVKKSADVYLSHTDLDWVIVRPGVLQDEAGDGLVTAGLAINYGNVARDNVAAFIDEALHQPQLSKIIVELTDGSTPVAEAVERLIKLEHHHHHH,not failed
2,MKVGIDAGGTLIKIVQESQQGRSYETKLTTNISEVIAWLNANTFESISLTGGNAGVIAENLNVDATIFVEFDASSKGLGMLLKEQGHHIDEYIFANVGTGTSLHYFDGKQQRRVGGVGTGGGMIQGLGYLLSQITDYEALTNLAQSGDRDTIDLKVKHIYKDTEPPIPGELTAANFGNVLHNLDVDFSPANKLASVVGVVGEVITTMAITVARENKTENVVYIGSSFNNNPLLREVIEDYTVLRGFKPYYIENGAFSGALGAIYLN,failed
3,MKVKKWVTQDFPMVEESATVRECLHRMRQYQTNECIVKDREGHFRGVVNKEDLLDLDLDSSVFNKVSLPDFFVHEEDNITHALLLFLEHQEPYLPVVDEEMRLKGAVSLHDFLEALIEALAMDVPGIRFSVLLEDKPGELRKVVDALALSNINILSVITTRSGDGKREVLIKVDAVDEGTLIKLFESLGIKIESIEKEEGF,not failed
4,MKVLKFGGTSVGDAERIRSVARLITSVKGRKIIVLSAMAGTTNSLVEIASHLVKRNVAQAKEVVQVLREKYHREINALYKRPDTLSAAKKAVDSLLDSLGHMCDVEGFTLFEEKRVLIL,failed
5,MKVQATFATLIALAAYFPAANAWKDCIIQRYKDGDVNNIYTANRNEEITIEEYKVFVNEACHPYPVILPDRSVLSGDFTSAYADDDESC,not failed
6,MKVQITNSRTEEILKVQANNENDEVSKATPGEVEESLRLIGDLKFFLATAPVNWQENQIIRRYYLNSGQGFVSCVFWNNLYYITGTDIVKCCLYRMQKFGREVVQKKKFEEGIFSDLRNLKCGIDATLEQPKSEFLSFLFRNMCLKTQKKQKVFFWFSVAHDKLFADALERDLKRESLNQPSTTKPVNEPALSFSYDSSSDKPLYDQLLQHLDSRRPSSTTKSDNSPPKLESENFKDNELVTVTNQPLLGVGLMDDDAPESPSQINDFIPQKLIIEPNTLELNGLTEETPHDLPKNTAKGRDEEDFPLDYFPVSVEYPTEENAFDPFPPQAFTPAAPSMPISYDNVNERDSMPVNSLLNRYPYQLSVAPTFPVPPSSSRQHFMTNRDFYSSNNNKEKLVSPSDPTSYMKYDEPVMDFDESRPNENCTNAKSHNSGQQTKQHQLYSNNFQQSYPNGMVPGYYPKMPYNPMGGDPLLDQAFYGADDFFFPPEGCDNNMLYPQTATSWNVLPPQAMQPAPTYVGRPYTPNYRSTPGSAMFPYMQSSNSMQWNTAVSPYSSRAPSTTAKNYPPSTFYSQNINQYPRRRTVGMKSSQGNVPTGNKQSVGKSAKISKPLHIKTSAYQKQYKINLETKARPSAGDEDSAHPDKNKEISMPTPDSNTLVVQSEEGGAHSLEVDTNRRSDKNLPDAT,failed
7,MKVSCCFGTCLKHLDPACVKTSRRIAILHSALPRQRPPPALECPAFSFGDSDMTDQRKGSDAEPTTHFGFKNVPESQKAEKVAEVFHSVAAKYDLMNDVLSGGMHRLWKRFTIELSGVRAGNRVLDIAGGTGDLTKRFSHLVGPTGQVVLADINESMLKVGRDRLLDLGVAGNVEFVQADAEKLPFPDNHFDCVTIAFGLRNVTHKEDALRSMLRVLKPGGRLLVLEFSKPTNALMSKVYDAYSFAFMPLAGKLITNDSESYRYLAESIRMHPNQETLKSMMVEAGFDRVTYHNMTAGIVALHRGIKP,failed
8,MKVSSKLLSITNHHEYLDLVTDGAKFRIYLLDENIIRIRGTFDDDFAPEESYALVKTAWADATDDLIGDERQRVTPIAVELTETADGYTVSNGRYTLEIHAEPFYFEIKDQNGVTVHKDLVKRSFVQDDLGRRFHYSAMGDHDKFYGFGEKSGKLNKFKRRMRMHNTDSLGWNAAKSDPLYKMIPFYIDFNTTTNIASGLYYNNTHDSVFDMDCEHSNYWLRYSYFQCDGGDLDVFFIGGPTIKQVVEHYTDLTGKSAMMPLPSLGYMGSTMFYTELDQDADQAILDFIDTCKKNGIPCDGFFLSSGYTSGKDGKRYVFNWNKKRFPDPQKFVAELKKRGALLAPNIKPGMLVTHPLADEFMEKDAYIKTPDGQGSQVDQYWGGDAHFVDFTNPHGRDAWEQKMTEALLSIGITSIWNDNNEYEINDTQAVVDAEGQKSTIGALKPIMPTMMAKAAKDAINRYDATVRPYLVNRAGFAGIQRYAQTWAGDNYTSWTNVKYNIPTILGMGLSGVANQGCDIGGFDGPLPEPELFVRWVQNGIFQPRFSIHSCNNDNTVTEPWTYPAYTKYIRAAIQLRYSLVPYLYSLLYEASTKGSPIMRPLVYEFQDDPQVAEESFEFMLGASLLVANVVDKGQTAKSVYLPAGVDWLDLKTSQYYTGGQTITIPVDLGSIPMFLKAGSIVPQSKGLMNLHNDVIDKLDVLIEPSRDAEFVVYEDDGVTNNYRQGETLETTIKTTATADGVVIDFSRVGQYQTQVKTMALAVCCPKIAPLSVDLADQSLPRYLNAAKFADAAEGWYFDGESRQVQIKYANPEVAGYAVKVNFSVKDLISI,failed
9,MKVSVIIPTYNERENLEELFSRIDNALQGLNYEIVVVDDDSPDRTWEKAQELSSKYPVKVIRRTKEKGLSSAVIRGFKEASGDVFVVMDADLQHPPEVIPKLIEAIKNGSDIAIGSRYVKGGKVENWPFYRKLISKGAIMVGRIALPKIRDIKDPVSGFFALRKEVVEGVELNPIGFKILMEILIKGKYSKVVEVPFTFGIRARGESKLKGKTIFEYLRHIYRLMKWEGEIDRIVKFSIVGLSGILVNEGFLWLFVNLGIPKEIAVIPAVELSILNNFFWNDIWTFKDIRRGSIFSRLLKFHIAALSGAVVNFIVYWILLFLGIHYLIANLVGIVLSFGVRYVINRHVTWAT,failed
10,MKVTFMNLEERKKLETKSIDELDLIGKKVCVDTCVVIDGRITELIERGKLKDATIIIPEAVVSELEYQANMGREIGYKGIEELRKLIEKASEHNIKVEYYGERPTREEIFLAKSGEIDAMIRKVAKETNSILLTSDWIQYNLAKAQGIEAYFLEAAEEEVELVLD,not failed
11,MKVTNLFKDKVDAISAHQSEFMNWMSPTLRDYWSDFLGKAQNSFLFSNVRDHNQPAVNEEVAPQPAPIVLQPEAQKLYDELSGKIGEVIHTGDWVHVSQERINQFGAVTEDMQWIHTDPERASVESPFKTTIAHGFLTLALLPKLTDSVDADKPLFPTAKLVVNLGLNQVRFPYPVKAGNNVRAVSTLTKVTPIKKGLEIEREIKVEIEGVRRPGAVVVSVIQLHFLEHHHHHH,not failed
12,MKVTSAEKHALLLPDNRTLTWYESGPSDGQPVLFCTGAGMSGLLSMDADLLTKLNIRLITPTRPGLGESTFDPKKTLKSFSSDVLFLLAYLNIKNISVIGSSQGAVFAMAICYYGKVDKLAIVAGQDQLDYPEIKKLLSSDVVNMQQQALFDPDGLKTWIIENITADWLMDFILNYSADVDLALYQENKFFPVYQACMKEAFKYGNKGYAQDLLITMQPWGFTPEMISTPTTLWYGLKDTSTVHSPDFGKLLSQRFPHAQRYVYDNEGGSLLWTKTSQILTNLIS,failed
13,MKVVVITGNLSRPSKTRAVADFMVDRVRASGNEASCWDLVDLHPHLGATVLPSSAAEIVKAALNDILASDVLVVGSPVYKASYTGLLKHLFDLVDMKALKGRYVIPFATGKASSHKPLVEASMEALFDFFEAQIHSRFIFALDEDFQNDALSENLRALVDRELDAARRAVSP,failed
14,MKVVVQIKDFDKVPQALRSVINLYNDIKDAEIEVVLHQSAIKALLKDSDTRSIIEDLIKKNILIVGCENSIRSQNLSHDQLIPGIKIVTSGVGEIVRKQSEGWIYLAL,not failed
15,MKVYLHFSPQFFANTYLIGNEITKEAVIIDPAKITEKMIHQIEKNEFNLKAVLLTHDLEHPYETGLNTILKIYSPKVYAGSCFSENVTINTLRGDGCIDVAGYSVRYFAIPAHSSYSYMFQIENMVFTGTSLSAGMIGQTSNMYAERTLRNILKTKLMCFEDNLIIMPFYGPPTSIGVERKYNASFFQDFEKKPFLEHHHHHH,not failed
16,MKWIDSHIHVDQYKDEEKSRLLKEVENSKEIKGLIAVSMNYQSCKETLSLAKKYPFIYPAIGFHPEQQIHKEECEQIYQLIEQNAEEIVAIGEVGLPYYLRKEDERIAADPYIAVLKKFIELASKYNLPIVLHAVYEDADIVCDLLEKYKVSRAHFHWFKGSDETMKRMMRNGYYISITPDVLHKEKIRKIVSYYPLEYMMVETDGPWEFQEDVITHPRMIREVLKEISSIKNISIDKVAETIYENTSRFYLK,failed
